Data taken from publication PMC3913127 (Nature immunology, 2012).

Target: …-loaded H-2D^d (mouse | )
Test: SPR

B1: Ly49A EC (entire extracellular domain of Ly49A, residues 67-262) (receptor, mouse (C57BL/6), UniProt P20937 67-262, looked up)
chain: KIFQYDQQKNCEEFLNHHNNCSNMQSDINLKDEMLKNKSIECDLLESLNRDQNRLYNKTKTVLDSLQHTGRGDKVYWFCYGMKCYYFVMDRKTWSGCKQACQSSSLSLLKIDDEDELKFLQLVVPSDSCWVGLSYDNKKKDWAWIDNRPSKLALNTGKYNIRDGGCMLLSKTRLDNGNCDQVFICICGKRLDKFPH
modifications: biotin (biotinylated Ly49A EC, captured on streptavidin)
Kd: 2050 ± 70 nM
koff: 0.00338 s⁻¹
kon: 1650 M⁻¹ s⁻¹
